Substrate in data set [1]: O=C(O)c1ccccc1-c1c2ccc(=O)c([As]3SCCS3)c-2oc2c([As]3SCCS3)c(O)ccc12
Briefly: Activity at Lyp expressed in Escherichia coli using pNPP as a substrate […].

Substrate in data set [2]: O=C(O)c1ccccc1-c1c2ccc(=O)c([As]3SCCS3)c-2oc2c([As]3SCCS3)c(O)ccc12
Briefly: Activity at Lyp expressed in Escherichia coli using DADEpYLIPQQG as a substrate […].

For orientation: kcat means the maximal rate divided by the concentration of active sites.

B1: Tyrosine-protein phosphatase non-receptor type 22 (Homo sapiens), Q9Y2R2 (protein)
chain: MDQREILQKFLDEAQSKKITKEEFANEFLKLKRQSTKYKADKTYPTTVAEKPKNIKKNRYKDILPYDYSRVELSLITSDEDSSYINANFIKGVYGPKAYIATQGPLSTTLLDFWRMIWEYSVLIIVMACMEYEMGKKKCERYWAEPGEMQLEFGPFSVSCEAEKRKSDYIIRTLKVKFNSETRTIYQFHYKNWPDHDVPSSIDPILELIWDVRCYQEDDSVPICIHCSAGCGRTGVICAIDYTWMLLKDGIIPENFSVFSLIREMRTQRPSLVQTQEQYELVYNAVLELFKRQMDVIRDKHSGTESQAKHCIPEKNHTLQADSYSPNLPKSTTKAAKMMNQQRTKMEIKESSSFDFRTSEISAKEELVLHPAKSSTSFDFLELNYSFDKNADTTMKWQTKAFPIVGEPLQKHQSLDLGSLLFEGCSNSKPVNAAGRYFNSKVPITRTKSTPFELIQQRETKEVDSKENFSYLESQPHDSCFVEMQAQKVMHVSSAELNYSLPYDSKHQIRNASNVKHHDSSALGVYSYIPLVENPYFSSWPPSGTSSKMSLDLPEKQDGTVFPSSLLPTSSTSLFSYYNSHDSLSLNSPTNISSLLNQESAVLATAPRIDDEIPPPLPVRTPESFIVVEEAGEFSPNVPKSLSSAVKVKIGTSLEWGGTSEPKKFDDSVILRPSKSVKLRSPKSELHQDRSSPPPPLPERTLESFFLADEDCMQAQSIETYSTSYPDTMENSTSSKQTLKTPGKSFTRSKSLKILRNMKKSICNSCPPNKPAESVQSNNSSSFLNFGFANRFSKPKGPRNPPPTWNI
On to B1, for which the kcat in data set [1] came out at 0.49 s⁻¹; in data set [2], 3.84 s⁻¹.

The values above are taken from ChEMBL document CHEMBL1177690, “Target-specific control of lymphoid-specific protein tyrosine phosphatase (Lyp) activity” (Bioorg Med Chem, 2010).
